# Laboratory results from patent US20250313644A1.
# Read-outs that look alike come from different tables or passages of the source.
# B1: BM2 antibody (Merck/Prometheus TL1A monoclonal antibody PRA023) (antibody, INN chains, looked up, V domains shown)
# VH: QVQLVQSGAEVKKPGASVKVSCKASGFDIQDTYMHWVKQRPGQGLEWMGRIDPASGHTKYDPKFQVRVTITRDTSTSTVYLELSSLRSEDTAVYYCARSGGLPDVWGQGTTVTVSS
# VL: EIVLTQSPGTLSLSPGERATLSCRASSSVSYMYWYQQKPGQAPRPLIYATSNLASGIPDRFSGSGSGTDFTLTISRLEPEDFAVYYCQQWEGNPRTFGGGTKLEIK
# How the values were obtained:
# [1] = target: human TL1A (HuTL1A) (human) (UniProt O95150); test: competition ELISA: antibody dilution mixed 1:1 with Biotin-TL1A, added to coated DcR3 (1 µg/mL), Streptavidin-HRP, OD450; blocked partner of TL1A: DcR3
# human TL1A (HuTL1A) (human), sequence (O95150 57-251 limits assumed): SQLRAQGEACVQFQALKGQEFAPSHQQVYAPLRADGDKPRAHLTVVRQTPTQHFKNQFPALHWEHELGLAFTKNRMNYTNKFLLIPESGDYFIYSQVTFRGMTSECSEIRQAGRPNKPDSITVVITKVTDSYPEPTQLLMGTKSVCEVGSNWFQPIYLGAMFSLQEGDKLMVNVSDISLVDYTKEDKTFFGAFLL
# LT-α [2] = target: T1, LT-α (UniProt P01374); test: ELISA, coated LT-α, Ab 1.563 nM
# T1 sequence (looked up): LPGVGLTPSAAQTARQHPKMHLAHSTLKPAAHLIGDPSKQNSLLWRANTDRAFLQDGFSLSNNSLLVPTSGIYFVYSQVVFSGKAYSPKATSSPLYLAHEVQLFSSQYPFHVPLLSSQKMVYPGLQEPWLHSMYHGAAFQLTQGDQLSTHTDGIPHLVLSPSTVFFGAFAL
# FASL [3] = target: FASL (UniProt P48023); test: ELISA, coated FASL, Ab 25 nM
# FASL, sequence (P48023 134-281 limits assumed): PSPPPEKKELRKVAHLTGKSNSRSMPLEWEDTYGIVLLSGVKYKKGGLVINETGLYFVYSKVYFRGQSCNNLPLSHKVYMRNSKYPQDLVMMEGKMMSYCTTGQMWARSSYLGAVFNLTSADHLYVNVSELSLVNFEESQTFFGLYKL
# FASL [4] = target: FASL (UniProt P48023); test: ELISA, coated FASL, Ab 100 nM
# FASL [5] = target: FASL (UniProt P48023); test: ELISA, coated FASL, Ab 6.25 nM
# FASL [6] = target: FASL (UniProt P48023); test: ELISA, coated FASL, Ab 1.563 nM
# [7] = target: human TL1A (HuTL1A) (human) (UniProt O95150); test: competition ELISA: antibody dilution mixed 1:1 with Biotin-TL1A, added to coated DcR3 (1 µg/mL), Streptavidin-HRP, OD450; blocked partner of TL1A: DcR3; remark: listed apart in the source
# LIGHT [8] = target: LIGHT (UniProt O43557); test: ELISA, coated LIGHT, Ab 1.563 nM
# LIGHT, sequence (O43557 74-240 limits assumed): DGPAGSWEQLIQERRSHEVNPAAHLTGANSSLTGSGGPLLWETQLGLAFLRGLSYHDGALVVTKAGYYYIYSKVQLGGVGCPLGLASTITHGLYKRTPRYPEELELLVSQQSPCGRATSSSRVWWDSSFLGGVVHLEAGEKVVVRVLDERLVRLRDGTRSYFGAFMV
# TNFα [9] = target: TNFα (UniProt P01375); test: ELISA, coated TNF-α, Ab 25 nM
# TNFα, sequence (P01375 77-233 limits assumed): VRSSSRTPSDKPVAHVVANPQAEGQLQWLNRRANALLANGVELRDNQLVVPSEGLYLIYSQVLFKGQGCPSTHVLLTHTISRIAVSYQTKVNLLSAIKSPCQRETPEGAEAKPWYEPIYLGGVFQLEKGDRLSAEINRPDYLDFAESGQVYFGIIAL
# LT-α [10] = target: T1, LT-α; test: ELISA, coated LT-α, Ab 0.391 nM
# [11] = target: human TL1A (HuTL1A) (human) (UniProt O95150)
# LT-α [12] = target: T1, LT-α; test: ELISA, coated LT-α, Ab 100 nM
# TNFα [13] = target: TNFα (UniProt P01375); test: ELISA, coated TNF-α, Ab 0.391 nM
# [14] = target: human TL1A (HuTL1A) (human) (UniProt O95150); test: ELISA: biotin-HuTL1A on streptavidin plate, antibody diluted at pH 7.4, HRP-anti-human Fc, OD450
# LIGHT [15] = target: LIGHT (UniProt O43557); test: ELISA, coated LIGHT, Ab 6.25 nM
# [16] = target: human TL1A (HuTL1A) (human) (UniProt O95150); test: DLS, antigen and antibody mixed in equal moles
# TNFα [17] = target: TNFα (UniProt P01375); test: ELISA, coated TNF-α, Ab 0.000 nM (blank)
# [18] = target: human TL1A (HuTL1A) (human) (UniProt O95150); remark: listed apart in the source
# LT-α [19] = target: T1, LT-α; test: ELISA, coated LT-α, Ab 0.000 nM (blank)
# [20] = target: human TL1A (HuTL1A) (human) (UniProt O95150); test: ELISA: biotin-HuTL1A on streptavidin plate, antibody diluted at pH 5.8, HRP-anti-human Fc, OD450
# LT-α [21] = target: T1, LT-α; test: ELISA, coated LT-α, Ab 25 nM
# LT-α [22] = target: T1, LT-α; test: ELISA, coated LT-α, Ab 6.25 nM
# LIGHT [23] = target: LIGHT (UniProt O43557); test: ELISA, coated LIGHT, Ab 0.391 nM
# FASL [24] = target: FASL (UniProt P48023); test: ELISA, coated FASL, Ab 0.000 nM (blank)
# FASL [25] = target: FASL (UniProt P48023); test: ELISA, coated FASL, Ab 0.391 nM
# TNFα [26] = target: TNFα (UniProt P01375); test: ELISA, coated TNF-α, Ab 6.25 nM
# LIGHT [27] = target: LIGHT (UniProt O43557); test: ELISA, coated LIGHT, Ab 25 nM
# LIGHT [28] = target: LIGHT (UniProt O43557); test: ELISA, coated LIGHT, Ab 0.000 nM (blank)
# TNFα [29] = target: TNFα (UniProt P01375); test: ELISA, coated TNF-α, Ab 100 nM
# TNFα [30] = target: TNFα (UniProt P01375); test: ELISA, coated TNF-α, Ab 1.563 nM
# LIGHT [31] = target: LIGHT (UniProt O43557); test: ELISA, coated LIGHT, Ab 100 nM
binder,measurement,setting,value
B1,IC50 (read off the curve),[1],7 µg/mL
same,OD450 nm,LT-α [2],0.0701
same,OD450 nm,FASL [3],0.0643
same,OD450 nm,FASL [4],0.0828
same,OD450 nm,FASL [5],0.0533
same,OD450 nm,FASL [6],0.0522
same,IC50 (read off the curve),[7],30 nM
same,OD450 nm,LIGHT [8],0.0741
same,OD450 nm,TNFα [9],0.0577
same,OD450 nm,LT-α [10],0.0713
same,"IC50 (read off the curve); IFN-γ of human T cells with IL-12, IL-18 and exogenous human TL1A",[11],1 nM
same,OD450 nm,LT-α [12],0.0701
same,OD450 nm,TNFα [13],0.0522
same,EC50 (read off the curve),[14],0.2 nM
same,OD450 nm,LIGHT [15],0.0719
same,Ave Z-dia (nm) of the antigen-antibody complex,[16],33.1 nm
same,OD450 nm,TNFα [17],0.0612
same,"IC50 (read off the curve); SEAP reporter in HEK293T/DR3-NFκB cells with soluble TL1A, OD655",[18],4 nM
same,OD450 nm,LT-α [19],0.0803
same,EC50 (read off the curve),[20],0.2 nM
same,OD450 nm,LT-α [21],0.0659
same,OD450 nm,LT-α [22],0.0646
same,OD450 nm,LIGHT [23],0.0643
same,OD450 nm,FASL [24],0.0549
same,OD450 nm,FASL [25],0.0511
same,OD450 nm,TNFα [26],0.0514
same,OD450 nm,LIGHT [27],0.076
same,OD450 nm,LIGHT [28],0.0588
same,OD450 nm,TNFα [29],0.0757
same,OD450 nm,TNFα [30],0.0517
same,OD450 nm,LIGHT [31],0.0864
